Test results taken from patent US20150203577A1 (Chugai, published 2015).
Where a chain is given by its changes, count along the chain named.

T1: mouse FcγRII extracellular domain, C-terminally His-tagged (mouse, UniProt P08101 30-210)
T1 construct: the whole entry is named; also called mFcγRII; mFcgRII
T1 sequence: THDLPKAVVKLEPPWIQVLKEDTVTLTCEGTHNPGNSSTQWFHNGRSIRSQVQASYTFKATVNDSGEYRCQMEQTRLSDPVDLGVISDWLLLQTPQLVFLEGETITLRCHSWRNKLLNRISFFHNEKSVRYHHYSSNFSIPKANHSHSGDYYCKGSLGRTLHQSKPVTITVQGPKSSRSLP

T2: mouse FcγRIII extracellular domain, C-terminally His-tagged (mouse, UniProt P08508 31-215)
T2 construct: the whole entry is named; also called mFcγRIII; mFcgRIII
T2 chain: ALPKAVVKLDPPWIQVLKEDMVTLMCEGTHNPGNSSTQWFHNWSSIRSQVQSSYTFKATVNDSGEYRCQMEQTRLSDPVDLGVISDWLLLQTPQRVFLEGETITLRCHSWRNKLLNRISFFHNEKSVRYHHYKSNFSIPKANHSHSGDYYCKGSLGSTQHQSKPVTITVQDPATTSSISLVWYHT

T3: mouse FcγRII (mouse, UniProt P08101 30-210)
T3 construct: also called mFcγRII; mFcgRII
T3 sequence: T1 sequence

T4: mouse FcγRIII (mouse, UniProt P08508 31-215)
T4 construct: also called mFcγRIII; mFcgRIII
T4 chain: T2 chain

B1: H237-MB390/MRAL-k0 (antibody, mouse IgG1, kappa)
heavy: QVQLQESGPGLVKPSETLSLTCAVSGHSISHDHAWSWVRQPPGEGLEWIGFISYSGITNYNPSLQGRVTISRDNSKNTLYLQMNSLRAEDTAVYYCARSLARTTAMDYWGEGTLVTVSSAKTTPPSVYPLAPGSAAQTNSMVTLGCLVKGYFPEPVTVTWNSGSLSSGVHTFPAVLQSDLYTLSSSVTVPSSTWPSETVTCNVAHPASSTKVDKKIVPRDCGCKPCICEPNEVEDVFIFPPKPKDVLTITLTPKVTCVVVDISKDDPEVQFSWFVDDVEVHTAQTQPREEQFNSTFRSVSELPIMHQDWLNGKEFKCRVNSAAFPAPIEKTISKTKGRPKAPQVYTIPPPKEQMAKDKVSLTCMITDFFPEDITVEWQWNGQPAENYKNTQPIMDTDGSYFVYSKLNVQKSNWEAGNTFTCSVLHEGLHNHHTEKSLSHSPGK
light: not shown
notes: Template of the MB390 variants; copies: 2 + 2
B2: H237-MB397/MRAL-k0 (antibody, mouse IgG1, kappa)
heavy: B1 heavy with P230T, N231Y
light: not shown
notes: Template of the MB397 variants; copies: 2 + 2
B3: H237-MB441/MRAL-k0 (antibody, mouse IgG1, kappa)
heavy: B1 heavy with P230T, N231Y, A326K
light: not shown
notes: copies: 2 + 2
B4: H237-MB440/MRAL-k0 (antibody, mouse IgG1, kappa)
heavy: B1 heavy with P230T, N231Y, P267L
light: not shown
notes: copies: 2 + 2
B5: H237-MB439/MRAL-k0 (antibody, mouse IgG1, kappa)
heavy: B1 heavy with P230T, N231Y, S263E
light: not shown
notes: copies: 2 + 2
B6: H237-MB442/MRAL-k0 (antibody, mouse IgG1, kappa)
heavy: B1 heavy with P230T, N231Y, K330R
light: not shown
notes: copies: 2 + 2
B7: H237-MB768/MRAL-k0 (antibody, mouse IgG1, kappa)
heavy: B1 heavy with D235L, A326Q
light: not shown
notes: mouse IgG1 CH variant; copies: 2 + 2
B8: H237-MB765/MRAL-k0 (antibody, mouse IgG1, kappa)
heavy: B1 heavy with D235L, N320L
light: not shown
notes: as for B7
B9: H237-MB778/MRAL-k0 (antibody, mouse IgG1, kappa)
heavy: B1 heavy with D235L, S333K
light: not shown
notes: as for B7
B10: H237-MB758/MRAL-k0 (antibody, mouse IgG1, kappa)
heavy: B1 heavy with D235L, S294M, K330R
light: not shown
notes: as for B7
B11: H237-MB793/MRAL-k0 (antibody, mouse IgG1, kappa)
heavy: B1 heavy with E229Q, D235I
light: not shown
notes: as for B7
B12: H237-MB764/MRAL-k0 (antibody, mouse IgG1, kappa)
heavy: B1 heavy with D235L, F292T
light: not shown
notes: as for B7
B13: H237-MB884/MRAL-k0 (antibody, mouse IgG1, kappa)
heavy: B1 heavy with V233E, E234S, D235L
light: not shown
notes: as for B7
B14: H237-MB885/MRAL-k0 (antibody, mouse IgG1, kappa)
heavy: B1 heavy with N231A, V233E, D235S
light: not shown
notes: as for B7
B15: H237-MB830/MRAL-k0 (antibody, mouse IgG1, kappa)
heavy: B1 heavy with D235L, P327F, E329Y
light: not shown
notes: as for B7
B16: H237-MB757/MRAL-k0 (antibody, mouse IgG1, kappa)
heavy: B1 heavy with D235L, S294M, N320D
light: not shown
notes: as for B7
B17: H237-MB886/MRAL-k0 (antibody, mouse IgG1, kappa)
heavy: B1 heavy with V233E, D235S
light: not shown
notes: as for B7
B18: H237-MB769/MRAL-k0 (antibody, mouse IgG1, kappa)
heavy: B1 heavy with D235L, P327D
light: not shown
notes: as for B7
B19: H237-MB832/MRAL-k0 (antibody, mouse IgG1, kappa)
heavy: B1 heavy with D235L, P327Y, E329Y
light: not shown
notes: as for B7
B20: H237-MB755/MRAL-k0 (antibody, mouse IgG1, kappa)
heavy: B1 heavy with D235L, S294L, N320D
light: not shown
notes: as for B7
B21: H237-MB772/MRAL-k0 (antibody, mouse IgG1, kappa)
heavy: B1 heavy with D235L, E329N
light: not shown
notes: as for B7
B22: H237-MB781/MRAL-k0 (antibody, mouse IgG1, kappa)
heavy: B1 heavy with D235L, A326K
light: not shown
notes: as for B7
B23: H237-MB883/MRAL-k0 (antibody, mouse IgG1, kappa)
heavy: B1 heavy with N231A, V233E, E234S, D235L
light: not shown
notes: as for B7
B24: H237-MB767/MRAL-k0 (antibody, mouse IgG1, kappa)
heavy: B1 heavy with D235L, A326G
light: not shown
notes: as for B7
B25: H237-MB762/MRAL-k0 (antibody, mouse IgG1, kappa)
heavy: B1 heavy with D235L, F292E
light: not shown
notes: as for B7
B26: H237-MB763/MRAL-k0 (antibody, mouse IgG1, kappa)
heavy: B1 heavy with D235L, F292N
light: not shown
notes: as for B7

Each binder was assayed against T1, mouse FcγRII extracellular domain, … (assay: SPR Biacore T200, KD ratio).
From the text: (§1) The antibody H chain variable region used was the variable region H237 (SEQ ID NO: 1) of the H chain VH3-IgG1 of the anti-IL-6 receptor antibody Fv4-IgG1 described in WO2009/125825. The antibody L chain commonly used was the L chain MRAL-k0 (SEQ ID NO: 2) of the anti-IL-6 receptor antibody tocilizumab. […] The resulting variant groups were designated as MB397 variants and MB390 variants, respectively. These variants were expressed and purified by the method of Reference Example 1 and evaluated for their binding to mFcγRII and mFcγRIII by the method of Reference Example 2 using Biacore T200.
(§2) Each altered antibody was analyzed for its interaction with each Fcγ receptor prepared above using Biacore T100 (GE Healthcare Japan Corp.), Biacore T200 (GE Healthcare Japan Corp.), Biacore A100, or Biacore 4000. The running buffer used was HBS-EP+ (GE Healthcare Japan Corp.). The assay temperature was set to 25° C. The sensor chips used were chips prepared by immobilizing Protein L (ACTIGEN or BioVision) onto Series S Sensor Chip CM5 (GE Healthcare Japan Corp.) or Series S Sensor Chip CM4 (GE Healthcare Japan Corp.) by the amine coupling method.
(§3) In order to calculate the KD value of each altered antibody for FcγR, kinetic analysis was conducted according to the following method: first, the antibody of interest was captured onto any of these chips and allowed to interact with mFcγR diluted with a running buffer. For the obtained sensorgram, the assay results were globally fit into the 1:1 Langmuir binding model using Biacore Evaluation Software to calculate an association rate constant ka (L/mol/s) and a dissociation rate constant kd (1/s). From these values, the dissociation constant KD (mol/L) was calculated.

| relative mFcγRII-binding activity (MB390 = 1) | relative mFcγRII-binding activity (mIgG1 = 1) | relative mFcγRII-binding activity (MB397 = 1) | Binder |
| --- | --- | --- | --- |
| 1 fold | 522 fold | – | B1 |
| – | 555 fold | 1 fold | B2 |
| – | 39.7 fold | 0.07 fold | B3 |
| – | 120 fold | 0.22 fold | B4 |
| – | 39.5 fold | 0.07 fold | B5 |
| – | 884 fold | 1.6 fold | B6 |

Biological target: T2, mouse FcγRIII extracellular domain, …
Experiment: SPR Biacore T200, KD ratio
From the text: as §1, §2, §3

| relative mFcγRIII-binding activity (MB390 = 1) | relative mFcγRIII-binding activity (mIgG1 = 1) | relative mFcγRIII-binding activity (MB397 = 1) | Binder |
| --- | --- | --- | --- |
| 1 fold | 11.9 fold | – | B1 |
| – | 19.3 fold | 1 fold | B2 |
| – | 4.1 fold | 0.21 fold | B3 |
| – | 6.9 fold | 0.36 fold | B4 |
| – | 4.5 fold | 0.23 fold | B5 |
| – | 26.9 fold | 1.39 fold | B6 |

The binders below were run against T3, mouse FcγRII (assay: SPR (Biacore), antibody captured on Protein L, mFcγR as analyte).

| Kd | relative mFcγRII-binding activity (mIgG1 = 1) | Binder |
| --- | --- | --- |
| 38.9 nM | 6.34 fold | B7 |
| 39.6 nM | 6.23 fold | B8 |
| 34.2 nM | 7.21 fold | B9 |
| 21.5 nM | 8.57 fold | B10 |
| 179 nM | 1.37 fold | B11 |
| 84.9 nM | 2.9 fold | B12 |
| 148 nM | 2.46 fold | B13 |
| 111 nM | 3.29 fold | B14 |
| 43.6 nM | 4.78 fold | B15 |
| 27.8 nM | 6.63 fold | B16 |
| 246 nM | 1.47 fold | B17 |
| 63.2 nM | 3.9 fold | B18 |
| 40.4 nM | 5.16 fold | B19 |
| 27.8 nM | 6.62 fold | B20 |
| 60.5 nM | 4.07 fold | B21 |
| 40.5 nM | 6.08 fold | B22 |
| 164 nM | 2.21 fold | B23 |
| 117 nM | 2.1 fold | B24 |
| 48.1 nM | 5.12 fold | B25 |
| 61.9 nM | 3.98 fold | B26 |

Biological target: T4, mouse FcγRIII
Experiment: as above

| Kd | relative mFcγRIII-binding activity (mIgG1 = 1) | Binder |
| --- | --- | --- |
| 2030 nM | 0.2 fold | B7 |
| 2560 nM | 0.15 fold | B8 |
| 2540 nM | 0.16 fold | B9 |
| 2110 nM | 0.17 fold | B10 |
| 5500 nM | 0.07 fold | B11 |
| 5150 nM | 0.08 fold | B12 |
| 5910 nM | 0.09 fold | B13 |
| 4350 nM | 0.13 fold | B14 |
| 3380 nM | 0.1 fold | B15 |
| 3230 nM | 0.11 fold | B16 |
| 7220 nM | 0.08 fold | B17 |
| 4380 nM | 0.09 fold | B18 |
| 3050 nM | 0.12 fold | B19 |
| 2500 nM | 0.15 fold | B20 |
| 3890 nM | 0.1 fold | B21 |
| 2120 nM | 0.19 fold | B22 |
| 4960 nM | 0.11 fold | B23 |
| 8790 nM | 0.04 fold | B24 |
| 3220 nM | 0.12 fold | B25 |
| 3970 nM | 0.1 fold | B26 |
